Earlier results on five substances are cited in article PMC10531495.

Like-named read-outs stand apart in the source and are kept apart here.

For data set [1], the target named is IAPP (Homo sapiens) (UniProt P10997).
In data set [2] the target is Aβ monomer (Homo sapiens) (UniProt P05067).
The target of data set [3] is IAPP (Homo sapiens) (UniProt P10997). The source holds these as a separate data set.
Data set [4] has the same target. The source holds these as a separate data set.
Data set [5] has the same target. The source holds these as a separate data set.

Chain of IAPP (Homo sapiens) (P10997 32-73): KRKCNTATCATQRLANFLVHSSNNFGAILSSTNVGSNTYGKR
Chain of leucine enkephalin (P01210 whole entry, looked up): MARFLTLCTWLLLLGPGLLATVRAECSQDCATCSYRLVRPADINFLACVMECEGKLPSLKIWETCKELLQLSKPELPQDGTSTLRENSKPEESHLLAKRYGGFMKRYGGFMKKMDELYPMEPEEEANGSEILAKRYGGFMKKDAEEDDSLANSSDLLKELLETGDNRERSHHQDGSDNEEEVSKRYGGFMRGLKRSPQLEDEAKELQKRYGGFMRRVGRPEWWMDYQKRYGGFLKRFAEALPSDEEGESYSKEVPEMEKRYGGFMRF

As a reminder, the Kd is the free concentration of one partner at which half of the binding sites on the other are occupied at equilibrium, for simple one-to-one binding. With Aβ(35–40) 35-40 (from UniProt P05067), the Kd in the data set with IAPP (Homo sapiens) [1] is 354 nM.

As to “leucine enkephalin (from UniProt P01210)”, the Kd in data set [2] is 60000 nM.

As for Aβ(25–35) 25-35 (from UniProt P05067), the Kd in the data set with IAPP (Homo sapiens) [3] was 282 nM.

Consider Aβ(29–40) 29-40 (from UniProt P05067), for which, in the data set with IAPP (Homo sapiens) [4], the Kd is 200 nM.

Consider Aβ(1–40) 1-40 (from UniProt P05067), for which the Kd with IAPP (Homo sapiens) [5] was 48.5 nM.
